Substitutions are numbered along the chain they refer to.

The text below walks through data of patent US20240101645A1 (HENRY M JACKSON FOUNDATION FOR THE ADVANCEMENT OF MILITARY …, published 2024).

T1: MERS-CoV spike antigens (bead panel) (MERS-CoV, UniProt K9N5Q8 18-1296)
T1 sequence: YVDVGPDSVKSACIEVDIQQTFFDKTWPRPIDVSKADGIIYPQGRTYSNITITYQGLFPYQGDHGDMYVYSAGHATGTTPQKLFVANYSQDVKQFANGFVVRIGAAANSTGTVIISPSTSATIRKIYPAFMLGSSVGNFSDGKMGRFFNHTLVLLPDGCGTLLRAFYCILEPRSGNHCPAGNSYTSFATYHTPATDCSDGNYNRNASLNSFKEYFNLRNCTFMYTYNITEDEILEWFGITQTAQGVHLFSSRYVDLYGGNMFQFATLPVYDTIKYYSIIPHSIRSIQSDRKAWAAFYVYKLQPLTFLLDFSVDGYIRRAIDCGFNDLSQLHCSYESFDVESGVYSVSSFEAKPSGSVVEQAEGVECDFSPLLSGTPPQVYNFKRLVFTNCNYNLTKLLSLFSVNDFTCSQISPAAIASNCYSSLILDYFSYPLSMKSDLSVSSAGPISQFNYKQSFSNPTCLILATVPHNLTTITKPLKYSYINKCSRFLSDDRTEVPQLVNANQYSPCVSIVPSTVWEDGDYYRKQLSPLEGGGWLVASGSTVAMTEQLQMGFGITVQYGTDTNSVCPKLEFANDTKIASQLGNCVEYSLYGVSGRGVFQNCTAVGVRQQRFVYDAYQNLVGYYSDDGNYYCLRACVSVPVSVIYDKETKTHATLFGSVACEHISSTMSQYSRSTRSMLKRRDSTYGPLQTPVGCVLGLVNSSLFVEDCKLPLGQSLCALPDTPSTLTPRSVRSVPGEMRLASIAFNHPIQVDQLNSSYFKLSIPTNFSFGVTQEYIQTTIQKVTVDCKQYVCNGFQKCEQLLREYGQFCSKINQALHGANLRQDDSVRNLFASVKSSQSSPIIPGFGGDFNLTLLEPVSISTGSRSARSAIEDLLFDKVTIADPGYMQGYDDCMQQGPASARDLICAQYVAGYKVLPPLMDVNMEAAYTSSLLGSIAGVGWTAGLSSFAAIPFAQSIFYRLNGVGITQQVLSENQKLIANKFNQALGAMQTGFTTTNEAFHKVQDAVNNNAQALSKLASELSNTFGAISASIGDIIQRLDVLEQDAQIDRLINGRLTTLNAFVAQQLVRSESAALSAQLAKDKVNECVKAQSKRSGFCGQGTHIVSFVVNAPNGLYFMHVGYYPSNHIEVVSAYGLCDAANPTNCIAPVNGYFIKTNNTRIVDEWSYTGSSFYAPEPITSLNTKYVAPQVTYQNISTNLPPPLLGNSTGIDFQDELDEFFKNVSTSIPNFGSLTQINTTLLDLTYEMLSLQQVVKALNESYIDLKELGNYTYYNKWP

B1: COV_2028 (antibody, V domains shown)
VH: QVQLQESGPGLVKPSGTLSLTCVVSGGSISSSNWWSWVRQPPGKGLEWIGEIYHSGSTNYNPSLKSRVTISVDKSKNQFSLRLTSVTAADTAVYYCARGWNYDYWGQGTLVTVSS
VL: QSALTQPASVSGSPGQSITIACTGTSSDVGSYNLVSWYQQHPGKAPKLMIYEVSKRPSGLSNRFSGSKSGNTASLTISGLQAEDEADYYCYSYAGSSTWVFGGGTKLTVL
notes: human IgG1
B2: COV_2008 (antibody, V domains shown)
VH: QVRVVQSGAEVKNPGASVKVSCKVSGYTLTELSIHWVRQAPGNGLEWMGGFDPEDGETIYAQKFQGRVTMTEDTSTDTAYMELSSLRSDDTAVYYCATAGAITGTPRNFYYYYGMDVWGQGTTVTVSS
VL: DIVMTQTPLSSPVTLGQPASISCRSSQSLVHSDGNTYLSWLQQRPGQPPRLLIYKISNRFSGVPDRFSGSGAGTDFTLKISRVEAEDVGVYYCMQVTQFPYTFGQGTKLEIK
notes: human IgG1
B3: COV_2035 (antibody, V domains shown)
VH: QVQLVQSGAEVKKPGASVKVSCKVSGYTLPELSIHWVRQAPGKGLEWLGGFDPEDGKIIYAQKFQGRVTMTEDTSTDTAYMELSSLRSEDTAVYYCATSPAVVERGWFDPWGQGTLVTVSS
VL: QSALTQPPSASGSPGQSVTISCTGTSSDVGGYNYVSWYQQHPGKAPKLMIYEVSKRPSGVPDRFSGSKSGNMASLTVSGLQAEDEANYYCSSYAGSKRVFGGGTKLTVL
notes: human IgG1
B4: COV_2037 (antibody, V domains shown)
VH: QVQLVQSGAEVKKPGASVKVSCKVSGYTLTELSMHWVRQAPGKGLEWMGGFDPEDAETIYAQKFQGRVTMTEDTSTDTAYMELSSLRSEDTAVYYCATAGAITGTPTNYSYYYGMDFWGQGTTVTVSS
VL: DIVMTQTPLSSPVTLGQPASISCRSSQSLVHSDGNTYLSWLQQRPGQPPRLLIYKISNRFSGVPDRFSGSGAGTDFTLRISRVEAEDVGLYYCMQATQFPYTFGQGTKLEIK
notes: human IgG1
B5: COV_2032 (antibody, V domains shown)
VH: EVQLVESGGGLVQPGGSLRLSCAASGFTFTTYWMHWVRQAPGKGLVWVSRIKTDGSSTNYADSVKGRFTISRDNAKNMLYLQMNSLRAEDTAVYYCAREGPVSIVYFDYWGQGTLVTVSS
VL: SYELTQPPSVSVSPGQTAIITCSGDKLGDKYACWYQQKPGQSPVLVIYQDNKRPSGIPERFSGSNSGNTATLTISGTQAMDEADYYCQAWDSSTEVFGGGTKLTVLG
notes: human IgG1
B6: COV_2169 (antibody, V domains shown)
VH: EVQLVESGGGVVQPGRSLRLSCAASGFTFSRYAMHWVRQAPGKGLEWVAVISYEGSNKYYADSVKGRFTISRNNSNNTLSLQMNSLRPDDTAVYYCVRSGGHYFDAFDLWGQGTMVTVSS
VL: EIVLTQSPGTLSLSPGERATLSCRASQSVSRNYVAWYQQKPGQAPRLLIYGASSRATGIPDRFSGSGSGTDFTLTISRLEPEDFALYYCQQYGSSYTFGQGTKLEIKR
notes: human IgG1
B7: COV_1050 (antibody, V domains shown)
VH: QVQLVESGGGVVQPGRSLRLSCAASRFTFSSYAMHWVRQAPGKGLEWVAVISFDGSNKYYADSVKGRFTIFRDNSKNTLSLQMNSLRTEDTAMYYCASPAGYYESLWGQGTLVTVSS
VL: SYELTQPPSVSVSPGQTARVTCSGDALSKQYGFWYQQKPGQAPTLVIYKDTERPSGIPERFSGSGSGTTVTLTISGVQAEDEADYYCQSTDNSGRWVFGGGTKLTVLG
notes: human IgG1
B8: COV_1025 (antibody, V domains shown)
VH: QVQLVESGGGVVQPGRSLRLSCAASGFTFNTYAMHWVRQAPGKGLEWVAIISYDGGNKYYADSMKGRFTISRDNSKNTLYLQMNSLRAEDTAVYYCARARTGNYYYGMDVWGQGTTVTVSS
VL: not shown
notes: human IgG1
B9: COV_1145 (antibody, V domains shown)
VH: QVQLVESGGGVVQPGRSLRLSCAASGFTFSSYGMHWVRQAPGKGLEWVAVIWYDGSNKYYADSVKGRFTISRDNSKNTLYLQMNSLRVEDTAVYYCAREGQLGATGLDCWGQGTLVSVSS
VL: SYELTQPPSVSVSPGQTARITCSGDALPKKYAYWYQQKSGQAPVLVIYEDSKRPSGIPERFSGSSSGTMATLTISGAQVEDEADYYCYSTDNSGNHWVFGGGTKLTVLG
notes: human IgG1
B10: COV_2215 (antibody, V domains shown)
VH: EVQLVESGGGLVKPGGSLRLSCAASGFTFSHAWMSWVRQAPGKGLEWVGRIKSKTDGGTADYAAPVKGRFTISRDDSKNTLYLQMNSLKTEDTAVYYCATIRYYYDSSAYLNDAFDIWGQGTMVTVSS
VL: B9 VL with N92S, W97R, G100A
notes: human IgG1
B11: COV_1184 (antibody, V domains shown)
VH: QVQLQQWGAGLLKPSETLSLTCAVYGGSFSGYYWSWIRQPPGKGLEWIGEINHSGNTTYNPSLKSRVTISVDTSKNQFSLKLSSVTAADTAVYYCARGLVITYYYDSSGKPFDPWGQGTLVTVSS
VL: not shown
notes: human IgG1
B12: COV_1177 (antibody, V domains shown)
VH: QVQLVESGGGVVQPGRSLRLSCAASGFTFSSYGMHWVRQAPGKGLEWVAVIWYDGSNKYYADSVKGRFTISRDNSKNTLYLQMNSLRAEDTAVYYCARDPLGAVAGYFDYWGQGTLVTVSS
VL: SYVLTQPPSVSVAPGQTARITCGGNNIGSKSVHWYQQKPGQAPVLVVYDDSDRPSGIPERFSGSNSGNTATLTISRVEAGDEADYYCQVWDSSSDHHWVFGGGTKLTVLG
notes: human IgG1
B13: COV_3069 (antibody, V domains shown)
VH: EVQLVESGGGLVKPGGSLRLSCAASGFTFGSYTMNWVRQAPGKGLEWVSSIDTTSSSIYYADSLKGRFAISRDSAKNSLYLQMNRLRAEDTAVYYCARGNGHSYDSSGYHYGMYFDYWGQGTLVTVSS
VL: DIQMTQSPSTLSASVGDRVTITCRASQSISRWLAWYQQKPGKAPKLLIYEVSSLENGVPSRFSGSRSGTEFTLTISSLQPDDFAIYYCQQYNTYSRTFGQGTKVEIKR
notes: human IgG1
B14: COV_3129 (antibody, V domains shown)
VH: QVQLQQWGAGLLKPSDTLSLTCAANGGGSFSGYYLGYIRQSPGKGLEWIGEINHNGGTNYNPSLKSRVTISGDTSKNQFSLKLSSVTAADTAIYYCARSRDSSLGDAVWYEYWGQGTLITVSS
VL: EIVLTQSPATLSLSPGERATLSCRASQSVDIYLAWYQQRPGQAPRLLISDASKRATGVPARFSGSGSGTDFTLTINSLEPEDFAIYYCQQRRDWPINFGQGTRLEIKR
notes: human IgG1
B15: COV_1118 (antibody, V domains shown)
VH: EVQLVESGGGLVKPGGSLRLSCAASGFSFSNYNMNWVRQAPGKGLEWVSYISSSSSYIYYADSVKGRFTISRDNAKNSLYLQMNSLRGEDTAVYSCAREASGAYYFDRSGYFDYWGQGTLVTVSP
VL: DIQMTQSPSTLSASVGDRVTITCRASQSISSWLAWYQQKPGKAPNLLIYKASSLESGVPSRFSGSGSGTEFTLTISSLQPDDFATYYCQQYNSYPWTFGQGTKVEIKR
notes: human IgG1
B16: COV_1136 (antibody, V domains shown)
VH: B15 VH with S28T, N31D, Y32C, Y50S, S54R, G88A
VL: B13 VL with R31S, K45N, E50K, V51A, N56S, R66G, I85T, S95P, R96W
notes: human IgG1
B17: COV_1154 (antibody, V domains shown)
VH: B15 VH with S28R, N31D
VL: DIQMTQSPSTLSASVGDRVTITCRASQSISSWLAWYQQKPGKAPNLLIYKASSLESGVPSRFSGSGSGTEFTLTISSLQPYDFATYYCQQYNSYPWAFGQGTKVEMKR
notes: human IgG1
B18: COV_3053 (antibody, V domains shown)
VH: EVQLVESGGGLVQPGRSLRLSCTASGFTLGDYAMTWVRQAPGKGLEWLGIIRNKRYGETKQYAASVKGRFTFSRDDSKGIGYLQRLSLKIEDTGVYYCTREHIVRDDAFDVWGQGTTVTVSS
VL: DIVMTQSPDSLAVSLGERATINCKSSQSVLYSSNNKNYIAWYQQRPGQPPKLLIYWTSTRASGVPDRFSGSGSGTDFALTISSLQAEDVAVYYCQQYYTIPRTFGQGTKVEIK
notes: human IgG1
B19: COV_2205 (antibody, V domains shown)
VH: EVQLVESGGGLVKPGGSLRLSCAASGFTFSDYYMIWIRQAPGEGLEWVSYISSRSSYTNYADSVKGRFTISRDNARNSLYLQMNSLRAEDTAVYYCARGQHDLLTGYYSWAYFDYWGQGTLVTVSS
VL: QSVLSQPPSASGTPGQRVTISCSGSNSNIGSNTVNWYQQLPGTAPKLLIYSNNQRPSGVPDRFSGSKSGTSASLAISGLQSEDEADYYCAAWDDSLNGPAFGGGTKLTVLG
notes: human IgG1
B20: COV_3088 (antibody, V domains shown)
VH: EVQLVESGGGLVQPGGSLRLSCAASGFTFSSYDMHWVRQATGKGLEWVSAIGTAGDTYYPGSVKGRFTISRENAKNSLYLQMNSLRAGDTAVYYCARGSGWPPFFDYWGQGTLVTVSS
VL: SYELTQPPSVSVAPGKTARITCGGNNIGSKSVHWYQQKPGQAPVLVIYYDSDRPSGIPERFSGSNSGNTATLTISRVEAGDEADYYCQVWDSSSDHHWVFGGGTKLTVL
notes: human IgG1

For one test, the target named is T2, SARS-CoV-2 NTD (1-290) (SARS-CoV-2, UniProt P0DTC2 14-290).
T2 construct: range 1-290
In words: BLI, 1:1 model. (In BLI a coated tip is dipped into the sample, and binding shifts an interference pattern.)
As for B1, the Kd (usually the equilibrium constant for the complex coming apart) amounted to 40.7 pM.

With B2, the dissociation constant (Kd) is < 1 pM.

As for B3, the Kd is < 1 pM.

As for B4, the Kd is < 1 pM.

The target of another test is T1, MERS-CoV spike antigens (bead panel). Put plainly: multiplex bead assay.
As for B5, the binding result is reported as “no binding”.

Take B6: the binding result was “no binding”.

B7: the binding result was “no binding”.

On to B8, for which the binding result is recorded as “no binding”.

Turning to B9, the binding result is on record as “no binding”.

As to B10, the binding result was “no binding”.

For the molecule B11, the binding result was “no binding”.

Take B12: the binding result is recorded as “no binding”.

On to B13, for which the binding result is listed as “no binding”.

Take B14: the binding result is listed as “no binding”.

With B15, the binding result is given as “no binding”.

For B16, the binding result is “no binding”.

With B17, the binding result is “no binding”.

For the molecule B18, the binding result is on record as “no binding”.

As to B19, the binding result is reported as “no binding”.

In the case of B20, the binding result is listed as “no binding”.
